Assay results from the supplement of paper PMC10567573.

B1: SMARCE1 (parent)
chain: YHNSPAYLAYINAKSRAEAALEEE
B2: CHIT1 (parent)
chain: CSWKGATKQRIQDQKVPYIFRDNQ

Variants of: B1
Assay: protein stability index of a GFP-peptide fusion (GPS, HEK-293T) (PSI 1-6); higher = more stable
Conditions: c terminus: a fixed tail appended
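Note: lentivirally expressed fusions sorted by FACS into six bins by GFP to DsRed ratio, PSI derived from sequencing read proportions per bin multiplied by bin number.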

Protein stability index, by site and new letter:
I11: G 1.87; F 2.67; H 2.46; Y 3.27; Q 2.85; T 2.99; V 2.33; E 2.64; R 2.29
R16: L 2.56; F 1.77; A 2.04; M 1.81; D 2.4; I 2.2; G 1.74
A6: M 2.07; H 2.3; P 1.94; I 2.61; C 1.77; T 1.78; F 2.06; Q 2.11; E 2.58; Y 2.23; D 2.12; W 2.21
L8: A 3.39; S 3.08; C 3.05; K 3.83; P 1.81; G 1.69; R 2.47; F 2.93; Y 2.5
A20: L 2.15; N 2.42; Y 3.29; F 1.69; D 2.97; C 2.27; T 1.61; G 3.01; R 2.89
E23: W 1.81; N 1.57; M 1.52; A 2.34; S 1.54; K 2.05; Q 1.59; H 2.13
Y10: D 2.37; E 2.94; R 3.34; H 1.68; N 2.05; T 3.44; S 2.56
S15: W 2.08; G 2.11; N 2.29; A 2.53; Y 1.62; D 2.06; E 2.29; C 3.03; T 2; Q 2.17; F 2.06
E22: V 2.73; M 2.01; Y 1.9; R 2.25; N 2.44; G 2.67
K14: N 2.57; F 2.35; G 2.89; A 1.79; T 2.86; M 1.57; R 2.51; L 1.9
P5: F 3.01; Y 2.31; C 3.56; S 2.67; E 1.82; T 2.46; V 3.69; R 2.99; L 2.92; K 2.06; W 2.98
N12: K 2.41; H 3.13; M 2.33; D 2.26; A 1.77; Q 2.25; W 2.09; T 2.06; L 2.1
E18: Y 2.15; G 2.31; Q 1.51; W 2.76; N 2.21; M 2.11; L 1.61; K 3.05
A9: W 2.21; F 1.94; P 3.18; D 1.42; Q 1.84; E 1.56; K 1.68; T 2.24; I 2.81
N3: M 2.06; Y 2.87; C 1.34; W 1.89; V 2.03; R 2.26; F 1.81; S 1.81; H 1.69
Y7: P 2.98; T 2.95; H 2.78; N 2.31; L 2.28; A 2.66; I 2.47; V 2.91; D 3.12; Q 2.77; E 3.06
A19: P 1.92; Q 2.12; T 2.41; D 2.33; M 2.24; C 2.84; I 2.05; W 2.48; R 2.59
Y1: K 4.96; Q 5.29; E 5.26; V 4.95; L 4.97; F 2.02; A 5.18; S 4.85; W 4.52
H2: S 2.5; G 2.65; Y 4.42; R 4.83; L 2.09; V 2.84; F 2.79; W 2.66; N 3.77; P 1.84; K 5.07; M 1.96
S4: Q 3.3; L 2.35; G 2.45; C 1.56; Y 2.09; I 2; D 3.31; E 2.89; N 2.23
L21: D 1.88; N 2.46; M 2.04; C 2.89; W 2.94; H 2.77; K 2.51; Q 2.07; S 1.95
E24: L 1.56; S 3.47; V 2.19; P 1.45; N 2.47; I 1.88; A 2.12; D 2.3; K 2.91; Q 3.45; R 2.71; G 1.95
A17: G 3.02; I 1.93; H 2.22; R 1.68; E 1.75; L 2.04; T 2.02; Y 2.05; C 2.1; P 2.45; W 2.17
A13: R 2.51; S 1.83; E 1.94; M 3.18; Q 2.83; N 1.9; F 2.06; T 2.28; L 2.21; P 2.63

Variants of: B2
Assay: as above
Conditions: c terminus: a fixed tail appended

Protein stability index, by site and new letter:
G5: L 2.77; P 2.38; Y 2.12; I 2.11; C 1.57; M 2.02; E 3.34; K 2.79; N 2.69; T 2.53; V 2.32; S 3.28; D 2.67; W 3.45; H 2.59; R 2.38; F 1.37
K4: R 2.75; D 2.7; I 2.04; H 3.06; Y 2.2; A 1.94; P 3.33; E 2.43; S 2.6; V 1.94; M 2.6; C 2.36; G 2.68; W 2.12; T 2.49; Q 3.06; L 1.84; F 1.26; N 2.5
S2: D 3.06; P 3.02; G 2.07; F 3.22; Q 1.93; V 1.85; M 2.43; K 2.01; L 2.18; I 1.74; A 2.39; H 2.42; N 2.53; C 2.06; W 2.69; E 3.25; Y 1.49; T 2.17; R 2
C1: S 3.58; F 1.75; K 3.36; R 2.86; W 2.26; L 2.74; N 2.88; I 2.62; G 3.47; T 2.79; P 2.86; Q 2.81; A 3.17; V 2.91; Y 1.96; M 2.89; E 3.13; H 3.08; D 3.26
A6: V 2.25; H 2.51; S 2.4; W 4.23; T 2.27; N 2.83; R 2.73; K 2.23; I 2.32; D 3.47; M 2.64; P 3.05; L 2.43; E 2.79; Q 2.54; F 2.14; C 2.06; G 1.82
W3: H 3.06; K 3.63; G 3.19; C 2.06; N 2.93; S 3.14; D 3.73; L 2.71; F 2.78; T 3.23; Q 3.6; R 3.71; V 3.46; I 2.95; M 2.69; A 2.78; E 4.03; Y 3.04
